The results in this text go back to PMC5374406, “The Phosphorylation of PDX-1 by Protein Kinase CK2 Is Crucial for Its Stability” (Pharmaceuticals, 2016).

Test [1] deals with PCIF1 (endogenous, MIN6) (UniProt Q6ZWS8). In words: Duolink proximity ligation assay. As to conditions: reference: DMSO, sites T231,S232.
The target of test [2] is PCIF1 (human; SPOP) (UniProt O43791). In words: GST pull-down, 35S autoradiography. The settings on record: sites T231,S232.
In test [3] the target is T1, GST-PDX-1 T231D/S232E (CK2-phosphomimicking mutant) (mouse, UniProt P52946 1-284, T231D | S232E).
T1 construct: 'Full-length mouse PDX-1' is said of the FLAG construct; also called D/E mutant; source: bacterial expression vector pGEX-4T-1, purified
In words: pull-down; 10 ug purified GST-tagged PDX-1 immobilised on GSH-sepharose in PBS-T (PBS pH 7.4, 1% Tween 20), incubated 2 h at 4 °C with 7.5 uL in vitro translated [35S]-methionine labeled PCIF1; SDS-PAGE, Coomassie and autoradiography. As to conditions: one partner purified.

T1 sequence (P52946 whole entry T231D/S232E): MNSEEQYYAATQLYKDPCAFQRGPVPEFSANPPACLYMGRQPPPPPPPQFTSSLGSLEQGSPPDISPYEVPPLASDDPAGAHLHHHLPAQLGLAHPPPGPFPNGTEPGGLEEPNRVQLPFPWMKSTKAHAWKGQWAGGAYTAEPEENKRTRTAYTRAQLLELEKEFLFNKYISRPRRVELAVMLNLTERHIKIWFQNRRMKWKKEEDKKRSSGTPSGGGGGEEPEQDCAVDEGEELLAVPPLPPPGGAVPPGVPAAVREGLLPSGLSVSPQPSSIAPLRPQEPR

Take “PDX-1 (from UniProt P52946) 10 µM CX-4945, 5 mM glucose”: in test [1] (5 mM glucose), the percent of reference entry is given as “weaker; reference 100”.

As for “PDX-1 (from UniProt P52946) GST-PDX-1 T231D/S232E”, the fold change in test [2] (reference: GST-PDX-1 T231A/S232A) and in test [2] (reference: GST-PDX-1 wild type) was 1.5 throughout.

As to “PDX-1 (from UniProt P52946) 10 µM CX-4945, 25 mM glucose”, the percent of reference entry in test [1] (25 mM glucose) is recorded as “weaker; reference 100”.

B1: PCIF1 (human), in vitro translated and [35S]-methionine labeled, from pET28a-PCIF-1 (natural protein, UniProt O43791 1-374, looked up)
chain: MSRVPSPPPPAEMSSGPVAESWCYTQIKVVKFSYMWTINNFSFCREEMGEVIKSSTFSSGANDKLKWCLRVNPKGLDEESKDYLSLYLLLVSCPKSEVRAKFKFSILNAKGEETKAMESQRAYRFVQGKDWGFKKFIRRDFLLDEANGLLPDDKLTLFCEVSVVQDSVNISGQNTMNMVKVPECRLADELGGLWENSRFTDCCLCVAGQEFQAHKAILAARSPVFSAMFEHEMEESKKNRVEINDVEPEVFKEMMCFIYTGKAPNLDKMADDLLAAADKYALERLKVMCEDALCSNLSVENAAEILILADLHSADQLKTQAVDFINYHASDVLETSGWKSMVVSHPHLVAEAYRSLASAQCPFLGPPRKRLKQS
modifications: [35S]-methionine labeled
notes: PCIF1 / SPOP, human cDNA cloned into the BamH1/Xho1 sites of pET28a; wild-type form; The tags are inferred from the vector and cloning sites; also called SPOP; source: in vitro translated (Promega) from pET28a-PCIF-1
As for B1, the “fold binding against wild-type or the AA mutant” value in test [3] was 1.5 fold.
